Usually EC50 stands for the concentration at which the effect is half-maximal. The term IC50 denotes the concentration that gives 50% inhibition. Low values mean higher potency, high ones lower potency.

Assay [1] has as its target human GLP-1 receptor (hGLP-1R) (Homo sapiens, UniProt P43220). In words: cAMP response (HTRF) in PSC-HEK-293 cells expressing human GLP-1 receptor. The class given is cell-based. How it is done:
(§1) Each vial contained 1.8 ml cells. The vials were slowly frozen to −80° C. in isopropanol, and then transferred in liquid nitrogen for storage.
(§2) Prior to their use, frozen cells were thawed quickly at 37° C. and washed (5 min at 900 rpm) with 20 ml cell buffer (lx HBSS; 20 mM HEPES, with 0.1% BSA).
(§3) For measurement of cAMP generation, 5 μl cells (final 5000 cells/well) and 5 μl of test compound were added to a 384-well plate, followed by incubation for 30 min at room temperature.
(§4) The cAMP generated was determined using a kit from Cisbio Corp. based on HTRF (Homogenous Time Resolved Fluorescence). The cAMP assay was performed according to manufacturer's instructions (Cisbio).
(§5) cAMP content of cells was determined using a kit from Cisbio Corp. (cat. no. 62AM4PEC) based on HTRF (Homogenous Time Resolved Fluorescence). […] Medium was then removed and cells washed with PBS lacking calcium and magnesium, followed by proteinase treatment with accutase (Sigma-Aldrich cat. no. A6964). Detached cells were washed and resuspended in assay buffer (1×HBSS; 20 mM HEPES, 0.1% BSA, 2 mM IBMX) and cellular density determined. They were then diluted to 400000 cells/ml and 25 μl-aliquots dispensed into the wells of 96-well plates. For measurement, 25 μl of test compound in assay buffer was added to the wells, followed by incubation for 30 minutes at room temperature.
In general terms: TR-FRET usually uses a lanthanide donor and a delayed reading to cut background.

Assay [2] addresses T1, glucagon receptor (hGCGR) (Homo sapiens, UniProt P47871).
T1 construct: expressed in transfected cells
Description: cAMP response (HTRF) in PSC-HEK-293 cells expressing human glucagon receptor. The class given is cell-based. How it is done: as §1, §2, §3, §4, §5

Assay [3] addresses human glucagon receptor (human, UniProt P47871 26-477). In words: cell-based or functional assay.
Assay [4] deals with T2, human GIP receptor (human, UniProt P48546 22-466).
T2 sequence (looked up): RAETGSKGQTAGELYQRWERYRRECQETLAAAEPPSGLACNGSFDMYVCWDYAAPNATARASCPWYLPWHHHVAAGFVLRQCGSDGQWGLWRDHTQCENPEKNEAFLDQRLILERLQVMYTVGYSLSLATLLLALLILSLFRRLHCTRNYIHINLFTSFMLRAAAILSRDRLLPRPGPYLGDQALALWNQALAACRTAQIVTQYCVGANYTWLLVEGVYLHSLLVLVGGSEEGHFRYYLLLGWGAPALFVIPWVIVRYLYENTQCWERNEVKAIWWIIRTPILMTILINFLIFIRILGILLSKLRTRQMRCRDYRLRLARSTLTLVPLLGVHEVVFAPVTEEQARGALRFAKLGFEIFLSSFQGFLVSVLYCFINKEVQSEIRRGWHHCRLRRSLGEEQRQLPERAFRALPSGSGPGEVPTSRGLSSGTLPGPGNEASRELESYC
In words: cell-based or functional assay.

Assay [5] deals with human GLP-1 receptor (human, UniProt P43220 24-463). In words: cell-based or functional assay.
Assay [6] addresses T2, human GIP receptor. Description: [125I]GIP displacement IC50, reference GIP(1-30) (SEQ ID NO: 2).
In assay [7] the target is T2, human GIP receptor. In words: [125I]GIP displacement IC50, reference native GIP (SEQ ID NO: 1).
For assay [8], the target named is T2, human GIP receptor. Description: [125I]GIP displacement, SPA beads with hGIPR HEK-293 membranes.

Where no end group is shown, it is not given here. [ ]: non-standard residue; d: D form. The star is where a group is joined. DO3A(CH2CH2SO2CH2CH2) = O=C(O)CN1CCN(CCS(=O)(=O)CC*)CCN(CC(=O)O)CCN(CC(=O)O)CC1; DOTA = O=C(O)CN1CCN(CC(=O)O)CCN(CC(=O)*)CCN(CC(=O)O)CC1; Aib = CC(C)(N)C(=O)O A value given as a limit tells only on which side of the number the result lay.

human glucagon receptor, sequence (P47871 26-477): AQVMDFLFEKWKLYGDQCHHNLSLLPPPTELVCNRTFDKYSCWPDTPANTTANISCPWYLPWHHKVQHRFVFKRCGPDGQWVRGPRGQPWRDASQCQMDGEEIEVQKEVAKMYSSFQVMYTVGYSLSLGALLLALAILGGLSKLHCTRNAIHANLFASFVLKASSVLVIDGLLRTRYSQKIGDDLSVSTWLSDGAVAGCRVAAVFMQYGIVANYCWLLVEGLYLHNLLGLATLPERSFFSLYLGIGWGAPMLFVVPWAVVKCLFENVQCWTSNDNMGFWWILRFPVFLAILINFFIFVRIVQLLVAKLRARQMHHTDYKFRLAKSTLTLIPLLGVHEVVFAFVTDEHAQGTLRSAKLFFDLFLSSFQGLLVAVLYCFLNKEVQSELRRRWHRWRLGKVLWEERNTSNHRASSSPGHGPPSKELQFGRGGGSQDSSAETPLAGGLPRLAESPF
human GLP-1 receptor (hGLP-1R), sequence (P43220 24-463): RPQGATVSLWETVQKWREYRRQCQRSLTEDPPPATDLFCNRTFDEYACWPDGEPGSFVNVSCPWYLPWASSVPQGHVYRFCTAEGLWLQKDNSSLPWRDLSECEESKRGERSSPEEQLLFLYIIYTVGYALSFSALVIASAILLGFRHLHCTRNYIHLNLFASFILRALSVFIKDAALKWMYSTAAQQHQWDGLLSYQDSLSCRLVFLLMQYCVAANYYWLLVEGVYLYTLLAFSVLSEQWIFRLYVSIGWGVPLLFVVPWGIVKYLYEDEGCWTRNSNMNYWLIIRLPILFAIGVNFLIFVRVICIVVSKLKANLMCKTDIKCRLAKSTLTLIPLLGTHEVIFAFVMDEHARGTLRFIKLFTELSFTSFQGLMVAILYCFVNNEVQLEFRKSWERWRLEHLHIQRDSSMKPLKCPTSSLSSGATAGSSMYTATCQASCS
T1 sequence (P47871 26-477): as the sequence (P47871 26-477) above

Consider `CC[C@H](C)[C@H](NC(=O)[C@H](CO)NC(=O)[C@H](Cc1ccc(O)cc1)NC(=O)[C@H](CC(=O)O)NC(=O)[C@H](CO)NC(=O)[C@@H](NC(=O)[C@H](Cc1ccccc1)NC(=O)[C@@H](NC(=O)CNC(=O)[C@H](CCC(=O)O)NC(=O)[C@H](C)NC(=O)[C@@H](N)Cc1ccc(O)cc1)[C@@H](C)O)[C@@H](C)CC)C(=O)N[C@@H](C)C(=O)N[C@@H](CCSC)C(=O)N[C@@H](CC(=O)O)C(=O)N[C@@H](CCCCN)C(=O)N[C@H](C(=O)N[C@@H](Cc1c[nH]cn1)C(=O)N[C@@H](CCC(N)=O)C(=O)N[C@@H](CCC(N)=O)C(=O)N[C@@H](CC(=O)O)C(=O)N[C@@H](Cc1ccccc1)C(=O)N[C@H](C(=O)N[C@@H](CC(N)=O)C(=O)N[C@@H](Cc1c[nH]c2ccccc12)C(=O)N[C@@H](CC(C)C)C(=O)N[C@@H](CC(C)C)C(=O)N[C@@H](C)C(=O)N[C@@H](CCC(N)=O)C(=O)N[C@@H](CCCCN)C(N)=O)C(C)C)[C@@H](C)CC` [SEQ ID NO: 2, YAEGTFISDYSIAMDKIHQQDFVNWLLAQK-NH2], for which the EC50 in assay [1] and in assay [2] was over 10 nM in each case.
On to H-Y[Aib]EGTFISDLSIALDRIHQEEFIEWLLAGGK(DOTA)-NH2 (also: Ga3+ complexed in DOTA on Lys31, also called Ga-S02-GIP-T4) [SEQ ID NO: 4 (GIP(1-30) analog with K(DOTA(Ga)) at position 31)], for which the “EC50 hGCGR, cAMP formation (HTRF), 96-well format” value (“EC50 hGCGR … 96-well format” below) in assay [3] is over 10 nM. For the same molecule, in assay [4], the “EC50 hGIP R, cAMP formation (HTRF), 96-well format” value is 0.00109 nM. Also, in assay [5], the “EC50 hGLP-1 R, cAMP formation (HTRF), 96-well format” value (“EC50 hGLP-1 R … 96-well format” below) was over 10 nM. Also, in assay [6], the “fold improvement of binding affinity against GIP(1-30)” value was about 5 fold. The “fold improvement of binding affinity against native GIP” value in assay [7] was about 12 fold. Further, in assay [8], the IC50 stood at 0.25 nM.

B1: SEQ ID NO: 5 (GIP(1-30) analog with C(VS-DO3A) at position 31, unloaded) (peptide)
peptide: Y[Aib]EGTFISDLSIALDRIHQEEFIQWLLAGGC(DO3A(CH2CH2SO2CH2CH2))-NH2
notes: Printed: Y-Aib-EGTFISDLSIALDRIHQEEFIQWLLAGGC(VS-DO3A)-NH2
As for B1, the “EC50 hGCGR, cAMP formation (HTRF), 384-well format” value in assay [3] was over 10 nM. Moreover, the “EC50 hGIP R, cAMP formation (HTRF), 384-well format” value in assay [4] came to 0.00022 nM. Further, the “EC50 hGLP-1 R, cAMP formation (HTRF), 384-well format” value in assay [5] was over 10 nM. Besides, the “fold improvement of binding affinity against GIP(1-30)” value in assay [6] was about 5 fold. Also, in assay [7], the “fold improvement of binding affinity against native GIP” value was about 12 fold. The IC50 in assay [8] was found to be 0.22 nM.
In the case of YAEGTFISDYSIAMDKIHQQDFVNWLLAQK-NH2 (ligand) [GIP(1-30) amide, SEQ ID NO: 2], the “EC50 hGCGR … 96-well format” value in assay [3] is over 10 nM. Besides, in assay [5], the “EC50 hGLP-1 R … 96-well format” value is over 10 nM.
Consider Y[Aib]EGTFISDLSIALDRIHQEEFIEWLLAGGK(DOTA)-NH2 [SEQ ID NO: 3 (GIP(1-30) analog with K(DOTA) at position 31, unloaded)], for which the “EC50 hGCGR … 96-well format” value in assay [3] is over 10 nM. Besides, the “EC50 hGIP R, cAMP formation (HTRF), 96-well format” value in assay [4] came to 0.00113 nM. The “EC50 hGLP-1 R … 96-well format” value in assay [5] was over 10 nM.
Turning to YAEGTFISDYSIAMDKIHQQDFVNWLLAQKGKKNDWKHNITQ-OH (ligand) [GIP (glucose-dependent insulinotropic polypeptide), SEQ ID NO: 1], in assay [3], the “EC50 hGCGR … 96-well format” value is over 10 nM and the “EC50 hGCGR, cAMP formation (HTRF), 384-well format” value was over 10 nM.

Values taken from patent US20230127047A1, “SELECTIVE GIP RECEPTOR AGONISTS COMPRISING A CHELATING MOIETY FOR IMAGING AND THERAPY PURPOSES” (ANTAROS MEDICAL AB, priority 2020, published 2023).
